For orientation: Kd means a measure of binding affinity in units of concentration. Usually koff stands for a measure of how fast the partners let go of each other. Usually kon stands for the second-order rate constant of association.

Assay [1] addresses C0362, C-terminal part of TDE0362 with the Mac-like domain (205–647 aa) (Treponema denticola ATCC 35405) (UniProt Q73QT1). The assay is described as follows: SEC; dimer fraction noted during SEC of purified C0362; column and buffer are not tied to this remark.
Assay [2] deals with T1, GST-CXCR1 (recombinant, from E. coli) (UniProt P25024 1-350).
T1 construct: CXCR1 (Uniport entry P25024), full length, gene codon optimized and synthesized, cloned into pGEX-6P-1; also called CXCR1 from E.coli; recombinant GST-CXCR1; source: E. coli BL21, purified (Glutathione Agarose with 5% sarkosyl in the lysis buffer, SEC); not shown: GST, N-terminal, kept
T1 sequence: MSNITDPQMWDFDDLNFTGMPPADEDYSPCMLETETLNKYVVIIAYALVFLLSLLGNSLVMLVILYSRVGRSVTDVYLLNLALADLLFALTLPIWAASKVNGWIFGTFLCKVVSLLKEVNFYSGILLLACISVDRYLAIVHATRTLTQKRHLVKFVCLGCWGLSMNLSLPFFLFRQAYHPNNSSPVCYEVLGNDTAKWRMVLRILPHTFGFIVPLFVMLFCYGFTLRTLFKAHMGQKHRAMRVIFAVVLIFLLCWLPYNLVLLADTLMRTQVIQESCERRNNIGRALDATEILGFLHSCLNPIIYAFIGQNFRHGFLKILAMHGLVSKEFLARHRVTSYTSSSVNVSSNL
Description: SPR; GST-CXCR1 coupled (EDC/NHS) to CM5 sensor chips, N0362 flowed over (0.05 or 0.1 µM to 3 µM), 25 °C, dPBS with 0.01% Tween 20, Reichert SR7500DC; kinetics globally fit to a one to two binding model, affinity model for saturation. Conditions: both partners purified. A general note: Surface plasmon resonance follows binding to a sensor surface in real time, without labels.

“C0362, C-terminal part of TDE0362 with the Mac-like domain (205–647 aa) (from UniProt Q73QT1 205-647) (enzyme)” yielded a fraction of the total material that was dimer in assay [1] of 10%.

B1: N0362, the N-terminus of TDE0362 (23–204 aa) (domain or fragment)
chain: KNNLLTKTEKEKSGEIPVKNIILSPNKSEFSLEKNTAQTITVKIIPEKATNKALIYSSKHGDIASIDNTGLITAKKEGRTIITIEASNGVKKTIDVIVTPEPIPVTNIEFEEEPPAFLFIGDVYIFKAKAKPDEATNRKLEYTTMTSDVISVTNTELGTMKATKEGNAAITIRSASTPSVAK
modifications: Alexa Fluor 488 label (only in the immunofluorescence on cells)
notes: TDE0362 of Treponema denticola ATCC 35405 (647 aa pre-protein), residues 23-204 with both bacterial Ig-like domains Big_1 and Big_2; Cloned in pET100/D-TOPO, which encodes the N-terminal 6xHis-tag; The same construct was used unlabelled (pull-down, ELISA, SPR) and labelled with Alexa Fluor 488 (cells); also called recombinant N0362; His-tagged N0362; source: E. coli BL21-CodonPlus (DE3)-RIL, …
Consider B1, for which, in assay [2], the Kd was 264 ± 2.3 nM, the koff worked out at 0.000857 s⁻¹ and the kon came out at 4950 M⁻¹ s⁻¹.

Source of the values: paper PMC11833123, “A bipartite bacterial virulence factor targets the complement system and neutrophil activation” (The EMBO Journal, 2025).
